Legend:
[1] = molecular target: EphA2 (expressed in HEK293T cells)
[2] = molecular target: Flag-EphB2-Acyto (cytoplasmic truncated version of EphB2)
[3] = molecular target: Flag-EphB2-kinase dead (KD)
[4] = molecular target: endogenous RhoA of mouse brain (mouse, UniProt Q9QUI0 1-190); test: cell-based or functional assay
Sequence of endogenous RhoA of mouse brain (Q9QUI0 1-190 limits assumed): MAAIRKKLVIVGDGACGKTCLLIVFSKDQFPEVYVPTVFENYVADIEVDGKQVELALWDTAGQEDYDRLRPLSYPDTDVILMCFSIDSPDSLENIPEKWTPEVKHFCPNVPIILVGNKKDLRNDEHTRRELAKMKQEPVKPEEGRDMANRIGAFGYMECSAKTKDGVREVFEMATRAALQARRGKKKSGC

Sequence of EphA2 (expressed in HEK293T cells) (P29317 whole entry, the tested form may be a part): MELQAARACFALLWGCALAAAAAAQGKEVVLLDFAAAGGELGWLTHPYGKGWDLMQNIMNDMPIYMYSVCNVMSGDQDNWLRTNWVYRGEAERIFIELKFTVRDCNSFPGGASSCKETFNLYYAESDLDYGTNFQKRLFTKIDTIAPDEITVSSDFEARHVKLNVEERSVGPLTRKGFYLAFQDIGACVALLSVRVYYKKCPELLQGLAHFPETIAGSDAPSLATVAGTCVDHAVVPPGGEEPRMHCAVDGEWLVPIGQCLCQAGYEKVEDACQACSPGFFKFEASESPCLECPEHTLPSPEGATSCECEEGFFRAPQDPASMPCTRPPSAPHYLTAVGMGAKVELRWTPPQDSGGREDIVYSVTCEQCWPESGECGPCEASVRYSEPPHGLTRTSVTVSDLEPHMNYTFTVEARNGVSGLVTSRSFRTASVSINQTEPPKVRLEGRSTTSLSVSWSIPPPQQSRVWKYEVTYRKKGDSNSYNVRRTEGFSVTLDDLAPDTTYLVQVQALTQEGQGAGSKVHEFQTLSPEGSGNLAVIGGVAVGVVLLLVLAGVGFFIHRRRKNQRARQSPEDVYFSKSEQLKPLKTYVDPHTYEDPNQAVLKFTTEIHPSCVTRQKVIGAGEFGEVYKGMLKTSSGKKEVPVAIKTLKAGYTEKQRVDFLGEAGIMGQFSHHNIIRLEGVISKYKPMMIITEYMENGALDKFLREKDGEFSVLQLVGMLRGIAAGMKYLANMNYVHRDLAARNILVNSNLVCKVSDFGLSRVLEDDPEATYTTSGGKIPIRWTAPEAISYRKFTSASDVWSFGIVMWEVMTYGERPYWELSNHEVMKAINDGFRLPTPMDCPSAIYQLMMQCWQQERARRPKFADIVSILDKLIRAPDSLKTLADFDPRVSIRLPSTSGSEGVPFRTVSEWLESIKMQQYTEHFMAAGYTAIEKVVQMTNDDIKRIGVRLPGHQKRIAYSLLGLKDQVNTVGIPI

| anti-RhoA signal from RBD pulldown assays, Ephexin5-/- against wild type brain lysates [4] | Binder | phosphorylation of Ephexin5 at Y361 (anti-pY361 immunoblot) [1] | phosphorylation of Ephexin5 at Y361 (anti-pY361 immunoblot) (Flag-EphA4) | phosphorylation of Ephexin5 at Y361 (anti-pY361 immunoblot) (Flag-EphB2) | tyrosine phosphorylation of Ephexin5 (anti-phosphotyrosine 4G10 immunoblot) (Flag-EphB2) | phosphorylation of Ephexin5 at Y361 (anti-pY361 immunoblot) [2] | phosphorylation of Ephexin5 at Y361 (anti-pY361 immunoblot) [3] |
| --- | --- | --- | --- | --- | --- | --- | --- |
| 4 fold | endogenous mouse Ephexin5 (neurons, brain lysates) (enzyme, UniProt Q5FWH6 1-849, looked up) MSAQSLPAATPPTLKPPRIIRPRPPSRHRAPHSPGPLHNGSSPKALPQISNDASASVCTSIFWEPPTASLKPPALLPPSVSRTSLDSQTSPDSPSSTPSPSPVSRRSISPEPAPCSPVPPPKPSGSSRTPLPSGPTPLQDGSASAPGTVRRLAGKFEWGAEGKAQSSDSLERCSQGSTEVNGEKETPEAALSGNGSQENGTPDAALACPPCCPCVCHVAKPGLELRWVPVGSSEDILRIPCRASPLRASRSRINPPVISHPPVVLTSYRSTAERKLLPPLKPPKPTKVRQDISTSEELPQPDLKLPSEDGIQTATKAWEGDRPEGAPLNAPPVALEGREEEGLDGLKGLQWELPLQDEPLYQTYRAAVLSEELWGVGEDGGPSPANPGEAPTFSRLPGPRNTLWQELPAVRGSGLLESLSPQERRMQESLFEVVTSEASYLRSLRLLTDTFVLSQALRDTLTPRDHHTLFSNVQRVQSVSERFLGTLLSRVRSSPHITDLCDVVHAHAVGPFFVYVDYVRNQQYQEETYSRLMDTNVRFSAELRRLQSLPKCERLPLPSFLLLPFQRITRLRMLLQNILSQTEEGSSRQENAQKALGAVSKIIERCSAEVGRMKQTEELIRLTQRLRFHKVKALPLVSWSRRLELQGELTELGCRRGGVLFTSRPRFTPLCLLLFSDLLLITQPKSGQRLQVLDYAHRSLVQAQQVPDPSGPPTFRLSLLSNHQGRPTHRLLQAASLSDMQRWLGAFPTPGPLPCSPDTIYEDCECSQELCSEPSTPSKTEGQSLESKAPRKHLHKNPEGWLKGLPGAFPAQLVCEVTGEHERRKHLRQHQKLLEAVGPSSGTPDTPQP | when EphA4 or EphA2 were expressed in HEK293T cells they detected little to no phosphorylation of Ephexin5 at Y361 | when EphA4 or EphA2 were expressed in HEK293T cells they detected little to no phosphorylation of Ephexin5 at Y361 | when wild type EphB2, but not a kinase dead or cytoplasmic truncated version of EphB2, was expressed in HEK293T cells together with Ephexin5, Ephexin5 become tyrosine phosphorylated at Y361 | in the presence of EphB2, Ephexin5-WT, but not Ephexin5-Y361F, become tyrosine phosphorylated | when wild type EphB2, but not a kinase dead or cytoplasmic truncated version of EphB2, was expressed in HEK293T cells together with Ephexin5, Ephexin5 become tyrosine phosphorylated at Y361 | when wild type EphB2, but not a kinase dead or cytoplasmic truncated version of EphB2, was expressed in HEK293T cells together with Ephexin5, Ephexin5 become tyrosine phosphorylated at Y361 |
|  | Ephexin5-Y361F-Myc (protein) MSAQSLPAATPPTLKPPRIIRPRPPSRHRAPHSPGPLHNGSSPKALPQISNDASASVCTSIFWEPPTASLKPPALLPPSVSRTSLDSQTSPDSPSSTPSPSPVSRRSISPEPAPCSPVPPPKPSGSSRTPLPSGPTPLQDGSASAPGTVRRLAGKFEWGAEGKAQSSDSLERCSQGSTEVNGEKETPEAALSGNGSQENGTPDAALACPPCCPCVCHVAKPGLELRWVPVGSSEDILRIPCRASPLRASRSRINPPVISHPPVVLTSYRSTAERKLLPPLKPPKPTKVRQDISTSEELPQPDLKLPSEDGIQTATKAWEGDRPEGAPLNAPPVALEGREEEGLDGLKGLQWELPLQDEPLFQTYRAAVLSEELWGVGEDGGPSPANPGEAPTFSRLPGPRNTLWQELPAVRGSGLLESLSPQERRMQESLFEVVTSEASYLRSLRLLTDTFVLSQALRDTLTPRDHHTLFSNVQRVQSVSERFLGTLLSRVRSSPHITDLCDVVHAHAVGPFFVYVDYVRNQQYQEETYSRLMDTNVRFSAELRRLQSLPKCERLPLPSFLLLPFQRITRLRMLLQNILSQTEEGSSRQENAQKALGAVSKIIERCSAEVGRMKQTEELIRLTQRLRFHKVKALPLVSWSRRLELQGELTELGCRRGGVLFTSRPRFTPLCLLLFSDLLLITQPKSGQRLQVLDYAHRSLVQAQQVPDPSGPPTFRLSLLSNHQGRPTHRLLQAASLSDMQRWLGAFPTPGPLPCSPDTIYEDCECSQELCSEPSTPSKTEGQSLESKAPRKHLHKNPEGWLKGLPGAFPAQLVCEVTGEHERRKHLRQHQKLLEAVGPSSGTPDTPQP |  |  |  | in the presence of EphB2, Ephexin5-WT, but not Ephexin5-Y361F, become tyrosine phosphorylated |  |  |

— patent US20130273076A1 (Harvard, published 2013)
